Positions count from the first letter of the chain named.

The text below walks through data of patent US20210371489A1, “SITE 2 SINGLE-CHAIN INSULIN ANALOGUES” (Case Western Reserve University, priority 2018, published 2021).

The target in test [1] is insulin receptor (IR) (Homo sapiens, UniProt P06213). The settings on record: cited from earlier work.
In test [2] the test system is diabetic Sprague-Dawley rats. As to conditions: diabetic (streptozotocin) Sprague-Dawley rats; cited from earlier work.
In test [3] the target is T1, FLAG epitope-tagged holoreceptor of human type 1 insulin-like growth factor receptor (human, UniProt P08069 31-1367, limits assumed).
T1 construct: mature; Holoreceptor captured on 96 well plates coated with anti-FLAG monoclonal antibody; The natural receptor is processed from one precursor into alpha and beta chains; also called hIGFR; IGF-1R
In words: ratio of dissociation constants from competitive displacement of 125I-IGF-I on plate-captured FLAG-tagged hIGFR; relative to insulin lispro. An excerpt: Cross-reactivity of the single-chain insulin analogues with IGF-1R was studied using a FLAG epitope-tagged holoreceptor to human type 1 insulin-like growth factor receptor (hIGFR) bound to 96 well plates coated with anti-FLAG monoclonal antibody. […] This is used as a marker for mitogenic potential, where less IGF-R affinity is interpreted as lower mitogenic potential.
On the technique in general: In a radioligand displacement assay an active substance lowers the binding of a labelled ligand.

For the molecule “2-F-PheB24-DKP-insulin: derivative of DKP-insulin containing ortho-monofluoro-phenylalanine at position B24”, in test [1], the “receptor-binding affinity relative to KP-insulin” value was “ca. 35(±5) %”. Besides, in test [2], the in vivo potency result is “potency and duration of signaling are enhanced”.

B1: single-chain insulin EA8, EA14, QA17, PE, EAGPRR (ligand)
chain: FVNQHLCGSHLVEALYLVCGERGFFYTPETEAGPRRGIVEQCCESICSLEQLQNYCN
notes: Single-chain insulin analogue (B domain, 6-residue C domain, A domain)
Turning to B1, the “IGF1-R (Rel. Aff.)” value in test [3] was determined as 11%.

B2: single-chain insulin EA8, EA14, RA17, PE, EAGPRR (ligand)
chain: B1 chain with Q53R
Take B2: the “IGF1-R (Rel. Aff.)” value in test [3] turned out to be 25%.

B3: single-chain insulin EA8, EA14, RA17, EP, EAGPRR (ligand)
chain: B1 chain with P28E, E29P, Q53R
Turning to B3, in test [3], the “IGF1-R (Rel. Aff.)” value worked out at 5%.

B4: single-chain insulin HA8, EA14, QA17, PE, EAGPRR (ligand)
chain: B1 chain with E44H
Consider B4, for which the “IGF1-R (Rel. Aff.)” value in test [3] is 18%.

B5: single-chain insulin HA8, EA14, NB17, PE, EEGPRR (ligand)
chain: B1 chain with L17N, A32E, E44H, Q53E
Take B5: in test [3], the “IGF1-R (Rel. Aff.)” value was 2%.

B6: single-chain insulin HA8, EA14, FB17, PE, EEGPRR (ligand)
chain: B1 chain with L17F, A32E, E44H, Q53E
For the molecule B6, the “IGF1-R (Rel. Aff.)” value in test [3] worked out at 16%.
